Drawing on PMC4150532, this text covers Kd and percent less co-precipitated than with wild-type Elp1–GFP (densitometry) for 3 molecules.

The target in data set [1] is T1, GST-Elp1 CTD (Saccharomyces cerevisiae) (UniProt Q06706).
T1 sequence: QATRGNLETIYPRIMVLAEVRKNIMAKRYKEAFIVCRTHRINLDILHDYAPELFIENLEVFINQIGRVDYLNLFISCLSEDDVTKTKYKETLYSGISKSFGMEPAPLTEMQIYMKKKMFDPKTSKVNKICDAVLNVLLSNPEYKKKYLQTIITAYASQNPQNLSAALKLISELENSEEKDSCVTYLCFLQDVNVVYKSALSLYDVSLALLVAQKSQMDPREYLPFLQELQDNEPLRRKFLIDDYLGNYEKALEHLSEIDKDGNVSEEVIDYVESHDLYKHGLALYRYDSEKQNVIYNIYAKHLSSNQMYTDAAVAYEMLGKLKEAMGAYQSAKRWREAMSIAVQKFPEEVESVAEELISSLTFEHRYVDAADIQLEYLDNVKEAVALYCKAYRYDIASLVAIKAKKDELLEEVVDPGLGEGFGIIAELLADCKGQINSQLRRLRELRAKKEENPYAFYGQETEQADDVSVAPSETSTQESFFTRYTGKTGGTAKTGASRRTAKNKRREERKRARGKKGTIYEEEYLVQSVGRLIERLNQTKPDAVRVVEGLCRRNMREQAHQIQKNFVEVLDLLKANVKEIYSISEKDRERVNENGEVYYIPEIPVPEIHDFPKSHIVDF
Briefly: EMSA. To be noted: native tRNA modifications; 5' phosphate removed, then 5' 32P-labelled; 20 mM Tris-HCl pH 7.5, 150 mM NaCl, 2 mM MgCl2, 8% glycerol, 10 U Ribolock; 45 min at room temperature; 1.5% native agarose gel in 0.5x TBE. (In general: Mobility shift assays separate free from complexed probe on a gel.)

Data set [2] deals with Elp1–KR9A–GFP (GFP-tagged Elp1 basic region mutant, nine basic residues to alanine) (S. cerevisiae) (UniProt Q06706). Briefly: co-IP; GFP–Trap beads precipitate the GFP-tagged protein from yeast lysate; HA-tagged partners found by anti-HA blot and measured by densitometry; lysis buffer 50 mM HEPES-KOH pH 7.5, 150 mM NaCl, 2 mM MgCl2, 0.1% Triton X-100; 4°C.

What is called Kd is the constant that tells how readily two partners part at equilibrium. A lower Kd goes with tighter binding. In data set [1], total yeast tRNA (Sigma R9001) returned a Kd of 550 nM.

B1: Elp5-3HA (HA-tagged Elp5 subunit of Elongator) (natural protein)
chain: MASSSHNPVILLKRILSLTESSPFILCLDSIAQTSYKLIQEFVHQSKSKGNEYPIVYISFETVNKPSYCTQFIDATQMDFVHLVKQIISYLPAATATQAKKHMVIIDSLNYISTEYITRFLSEIASPHCTMVATYHKDIKDENRTVIPDWNNNYPDKLTLLQFMATTIVDIDVVLTGTLDTEEVSELLNEFRIPRGLNNDIFQLRLVNKRKSGRSLEYDFIVNSNTHEYELLSTTKQEEESSSNGLETPEMLQGLTTFNLGTSNKQKLAKDQVALPFLEAQSFGQGGAIVYEYEKDDDYDEEDPYEDPF
As to B1, in data set [2], the percent less co-precipitated than with wild-type Elp1–GFP (densitometry) was found to be 30%.

B2: Kti12-3HA (HA-tagged Elongator accessory protein Kti12) (natural protein)
chain: MPLVLFTGYPCSGKTTLAKHLVQLLQSKIDATPSLSKYSITYHSDESLGIKHSDYITSQDERKLRSEIISAVKRDLSKNKIVIVDSLNYIKGFRYQLHCEVKNLSTTFCVIQTLCPPETIFEWNKTSNPNPWEPELLNQLIQRYEEPNSSNRWDSPLFAILTPQDNITDYIDDICKVVFQTSKSAKNSGHNDPLSKGLQKPNSATVLKPASQSNFIQVLDIETSKIIKTIMNHIKSLTSIGGVSNGTRVIVSEGITDINDDGCFFVDLPIGNVVTLAQLQRLKRQFINFNKLRDIDQDRIGPLFADYLNKNLN
In the case of B2, in data set [2], the percent less co-precipitated than with wild-type Elp1–GFP (densitometry) was 40%.
